Laboratory results: patent US20260248897

How the values were obtained:
[1] = tested on: RBD of SARS-CoV-2 Omicron strain
[2] = tested on: RBD of SARS-CoV-2 Delta strain B.1.617.2, on infectious virus
[3] = tested on: RBD of SARS-CoV-2 Omicron strain B.1.1.529, BA1, on infectious virus
[4] = tested on: RBD of SARS-CoV-2 Delta strain

With “gene recombinant of human PDI (protein disulfide isomerase)” the “disulfide bond cleavage activity (remaining rate of native RBD; maleimide-PEG 2k, SDS-PAGE)” value [1] was “PDI showed an activity to cleave disulfide bonds in both the RBD of the Delta strain and the RBD of the Omicron strain. The disulfide bond cleavage activity was particularly high in the RBD of the Omicron strain”, the “antiviral activity (viral genome amount in supernatant of infected airway organoids)” value [2] was “PDI showed the high antiviral activity against both the Delta strain and the Omicron strain” and the “antiviral activity (viral genome amount in supernatant of infected airway organoids)” value [3] was “PDI showed the high antiviral activity against both the Delta strain and the Omicron strain”. The “disulfide bond cleavage activity (remaining rate of native RBD; maleimide-PEG 2k, SDS-PAGE)” value [4] was “PDI showed an activity to cleave disulfide bonds in both the RBD of the Delta strain and the RBD of the Omicron strain”.
